Common to all, as to experiment: fluorescence polarisation; TEAD4 (217-434) at 350 nM, carboxyfluorescein peptide probe at 25 nM; disruptors titrated 0-150 uM to the probe-TEAD complex; 25 C, 20 min
Details in all cases: both partners purified
(In general: Fluorescence polarisation rises when a labelled molecule tumbles more slowly, as on binding a larger partner.)

The target in assay [1] is T1, YAP/TAZ-binding domain of human TEAD4 (217-434), acylated form (human, UniProt Q15561 217-434, acylated).
T1 construct: also called acylated TEAD

Assay [2] has as its target T2, YAP/TAZ-binding domain of human TEAD4 (217-434), deacylated form (human, UniProt Q15561 217-434).
T2 construct: also called deacylated TEAD

The target of assay [3] is YAP/TAZ-binding domain of human TEAD4 (217-434), acylation state not stated (human, UniProt Q15561 217-434).

Ends that are not written are not given here.

The source of these data is PMC9007350, “Aurintricarboxylic acid is a canonical disruptor of the TAZ-TEAD transcriptional complex” (PLoS ONE, 2022).

YAP/TAZ-binding domain of human TEAD4 (217-434), acylation state not stated, sequence (Q15561 217-434): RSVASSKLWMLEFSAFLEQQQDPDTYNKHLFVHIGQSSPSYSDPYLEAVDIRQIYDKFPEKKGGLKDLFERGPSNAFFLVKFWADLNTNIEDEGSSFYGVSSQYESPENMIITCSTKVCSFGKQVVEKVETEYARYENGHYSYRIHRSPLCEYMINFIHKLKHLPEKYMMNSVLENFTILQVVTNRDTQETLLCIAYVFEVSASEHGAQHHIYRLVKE
T2 sequence (Q15561 217-434): as above
T1 sequence (Q15561 217-434): as above

B1: Human TAZ (23-57) peptide probe, carboxyfluorescein-labelled (peptide, UniProt Q9GZV5 23-57, looked up)
peptide: DLDTDLEALFNSVMNPKPSSWRKKILPESFFKEPD
modifications: carboxyfluorescein label (position not given)
notes: human TAZ residues 23-57, UniProt Q9GZV5; also called TAZ peptide probe; TAZ probe
For the molecule B1, the binding result in assay [1] and in assay [2] was “binds” throughout.

B2: Mouse Vgll1 (26-51) peptide probe, carboxyfluorescein-labelled (peptide, UniProt Q99NC0 26-51, looked up)
peptide: GSVIFTYFEGDINSMVDEHFSRALRN
modifications: also: carboxyfluorescein label, position not given here
notes: mouse Vgll1 residues 26-51; also called Vgll1 peptide probe
Regarding B2, the binding result in assay [3] is listed as “binds”.

B3: Human YAP (61-100) peptide probe, carboxyfluorescein-labelled (peptide, UniProt P46937 61-100, looked up)
peptide: SETDLEALFNAVMNPKTANVPQTVPMRLRKLPDSFFKPPE
modifications: carboxyfluorescein label (position not given)
notes: human YAP (Yes-associated protein) residues 61-100; also called YAP peptide probe
For the molecule B3, the binding result in assay [3] was “binds”.
